In patent US20130129730A1 (Amgen, published 2013):

T1: human EpCAM (human, UniProt P16422 24-314)
T1 construct: whole, on cells; also called Epithelial cell adhesion molecule; CD326
T1 sequence (looked up): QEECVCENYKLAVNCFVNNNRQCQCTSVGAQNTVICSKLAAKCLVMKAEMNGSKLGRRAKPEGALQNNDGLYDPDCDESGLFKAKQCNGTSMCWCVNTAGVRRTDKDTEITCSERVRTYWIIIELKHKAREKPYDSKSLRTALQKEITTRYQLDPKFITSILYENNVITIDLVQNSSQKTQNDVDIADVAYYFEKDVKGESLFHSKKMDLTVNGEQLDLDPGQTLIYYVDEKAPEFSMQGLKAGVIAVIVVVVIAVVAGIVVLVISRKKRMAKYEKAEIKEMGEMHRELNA

B1: scFv PM52-C3 (scFv)
scFv: QVQLVQSGAEVKKPGASVKLSCKASGYTFTYFDINWVRQTPEQGLEWMGGISPGDGNTNYNENFKGRVTMTRDTSSSTAYMELSRLRSDDTAVYYCARDGNFPYYAMDSWGQGTTVTVSSGGGGSGGGGSGGGGSDVVMTQSPLSLPVTLGEPASISCRSSQSLVYSNGNTYLHWYQQKPGQSPRLLIYKVSNRFSGVPDRFSGSGSGTDFTLKISRVEAEDVGVYFCSQSTHVPYTFGQGTKLEIKDYKDDDDK
notes: Tested as periplasmic preparation from E. coli; also called PM52C3-VH-VL; not shown: His6-tag
B2: scFv PM52-H3 (scFv)
scFv: QVQLVQSGAEVKKPGASVKLSCKASGYTFTYFDINWVRQTPEQGLEWMGGISPGDGNTNYNENFKGRVTMTRDTSKSTAYMELSRLRSDDTAVYYCARDGNFPYYAMDSWGQGTTVTVSSGGGGSGGGGSGGGGSDVVMTQSPLSLPVTLGEPASISCRSSQSLVYSNGNTYLHWYQQKPGQSPRLLIYKVSNRFSGVPDRFSGSGSGTDFTLKISRVEAEDVGVYFCSQSTHVPYTFGQGTKLEIKDYKDDDDK
notes: Tested as periplasmic preparation from E. coli; also called PM52H3-VH-VL; not shown: His6-tag
B3: scFv PM75-A10 (scFv)
scFv: QVQLVQSGAEVKKPGASVKLSCKASGYTFTYFDINWVRQTPEQGLEWMGGISPGDGNTNYNENFKGRVTMTRDTSSSTAYMELSRLRSDDTAVYYCARDGNFPYYAMVNWGQGTTVTVSSGGGGSGGGGSGGGGSDVVMTQSPLSLPVTLGEPASISCRSSQSLVYSNGNTYLHWYQQKPGQSPRLLIYKVSNRFSGVPDRFSGSGSGTDFTLKISRVEAEDVGVYFCSQSTHVPYTFGQGTKLEIKDYKDDDDK
notes: Tested as periplasmic preparation from E. coli; also called PM75A10-VH-VL; not shown: His6-tag
B4: scFv PM91-B6 (scFv)
scFv: QVQLVQSGAEVKKPGASVKLSCKASGYTFTYFDINWVRQTPEQGLEWMGGISPGDGNTNYNENFKGRVTMTRDTSSSTAYMELSRLRSDDTAVYYCARDGNFPYYALTNWGQGTTVTVSSGGGGSGGGGSGGGGSDVVMTQSPLSLPVTLGEPASISCRSSQSLVYSNGNTYLHWYQQKPGQSPRLLIYKVSNRFSGVPDRFSGSGSGTDFTLKISRVEAEDVGVYFCSQSTHVPYTFGQGTKLEIKDYKDDDDK
notes: Tested as periplasmic preparation from E. coli; also called PM91B6-VH-VL; not shown: His6-tag
B5: scFv PM74-G3 (scFv)
scFv: QVQLVQSGAEVKKPGASVKLSCKASGYTFTYFDINWVRQAPEQGLEWMGGISPGDGNTNYNENFKGRVTMTIDTSSSTAYIELSRLTSDDTAVYYCARDGNFPYYAMDSWGQGTTVTVSSGGGGSGGGGSGGGGSDVVMTQTPLSLPVSLGDQASISCRSSQSLVHSNGNTYLHWYLQKPGQSPKLLIYKVSNRFSGVPDRFSGSGSGTDFTLKISRVEAEDLGVYFCSQSTHVPYTFGGGTKLEIKDYKDDDDK
notes: Tested as periplasmic preparation from E. coli; also called PM74G3-VH-VL; not shown: His6-tag

Molecular target: T1, human EpCAM
Test: flow cytometry, scFv periplasmic preparation on human EpCAM transfected CHO cells
Method: Periplasmic preparations of E. coli clones producing the scFv molecules EpCAM 4-7, PM74-G3, PM52-H3, PM52-C3, PM75-A10 and PM91-B6 are used to examine specific binding to human PSMA or human EpCAM transfected cell lines. As negative control untransfected CHO cell are used.
For flow cytometry 2,5×10⁵ cells are incubated with 50 μl of scFv periplasmic preparation. The binding of scFv to the cells is detected with an anti-His antibody (Penta-His Antibody, BSA free, Qiagen GmbH, Hilden, FRG) at 2 μg/ml in 50 μl PBS with 2% FCS. As a second step reagent a R-Phycoerythrin-conjugated affinity purified F(ab′)2 fragment, goat anti-mouse IgG (Fc-gamma fragment specific), diluted 1:100 in 50 μl PBS with 2% FCS (Dianova, Hamburg, FRG) is used. The samples are measured on a FACSscan (BD biosciences, Heidelberg, FRG).
Flow cytometry is performed on a FACS-Calibur apparatus; the CellQuest software is used to acquire and analyze the data (Becton Dickinson biosciences, Heidelberg). FACS staining and measuring of the fluorescence intensity are performed as described in Current Protocols in Immunology (Coligan, Kruisbeek, Margulies, Shevach and Strober, Wiley-Interscience, 2002).

Binding result, no binding:
B1
B2
B3
B4
B5
